According to publication PMC12823420 (2024):
Read-outs that look alike come from different tables or passages of the source. Values belong to the binder of their own block, whether it stands above or below them. Where no end group is shown, it is not given here.

Key:
[1] = molecular target: T1, UAP56 (human, UniProt Q13838 1-428)
[2] = molecular target: T1, UAP56; test: AMP-PNP
[3] = molecular target: T1, UAP56; test: RNA + AMP-PNP
[4] = molecular target: T1, UAP56; test: AMP-PNP; remark: listed apart in the source
[5] = molecular target: T1, UAP56; test: RNA + AMP-PNP; remark: listed apart in the source

- koff [1]: 1.39 s⁻¹
- koff [2]: 0.83 s⁻¹
- koff [3]: 1.68 s⁻¹
- Kd [4]: 11 µM
- Kd [5]: 12 µM
B1: SARNP UCM-4 peptide, biotinylated (peptide)
chain: SISRKSEDDEKLKKRKERFGIVTS
modifications: also: biotinylated, site not given here

- koff [1]: 3.44 s⁻¹
- koff [3]: 2.67 s⁻¹
- Kd [4]: 12 µM
- Kd [5]: 13 µM
B2: SARNP UCM-1 peptide, biotinylated (peptide)
chain: VDVAAEKKVVKITSEIPQTERMQKRAERFNVPVS
modifications: also: biotinylated, site not given here
